From US20060121042A1 (AstraZeneca / MedImmune, published 2006) come the findings set out here.

Common to all, as to assay: ELISA
On the technique in general: In an ELISA, binding on a coated surface is turned into a signal by an enzyme label.

The target of test [1] is mEph A2 (mouse, UniProt Q03145).
Test [2] has as its target T1, rrEphB1 (rat, UniProt P09759).
T1 sequence (receptor, looked up): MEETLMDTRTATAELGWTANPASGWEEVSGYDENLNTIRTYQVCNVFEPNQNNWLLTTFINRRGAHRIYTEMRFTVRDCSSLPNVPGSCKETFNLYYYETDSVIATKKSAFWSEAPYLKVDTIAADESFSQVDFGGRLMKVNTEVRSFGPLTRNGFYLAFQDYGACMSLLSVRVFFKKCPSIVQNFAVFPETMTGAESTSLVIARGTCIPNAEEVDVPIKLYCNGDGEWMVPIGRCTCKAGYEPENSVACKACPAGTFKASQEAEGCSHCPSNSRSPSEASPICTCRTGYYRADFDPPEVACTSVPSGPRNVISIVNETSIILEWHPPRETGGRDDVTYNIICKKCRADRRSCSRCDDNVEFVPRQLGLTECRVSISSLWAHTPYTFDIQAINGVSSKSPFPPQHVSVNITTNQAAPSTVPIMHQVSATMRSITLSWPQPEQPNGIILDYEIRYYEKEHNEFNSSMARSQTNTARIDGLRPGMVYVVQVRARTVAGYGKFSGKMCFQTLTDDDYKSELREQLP

Test [3] deals with T2, rmEph B2 (mouse, UniProt P54763).
T2 sequence (receptor, looked up): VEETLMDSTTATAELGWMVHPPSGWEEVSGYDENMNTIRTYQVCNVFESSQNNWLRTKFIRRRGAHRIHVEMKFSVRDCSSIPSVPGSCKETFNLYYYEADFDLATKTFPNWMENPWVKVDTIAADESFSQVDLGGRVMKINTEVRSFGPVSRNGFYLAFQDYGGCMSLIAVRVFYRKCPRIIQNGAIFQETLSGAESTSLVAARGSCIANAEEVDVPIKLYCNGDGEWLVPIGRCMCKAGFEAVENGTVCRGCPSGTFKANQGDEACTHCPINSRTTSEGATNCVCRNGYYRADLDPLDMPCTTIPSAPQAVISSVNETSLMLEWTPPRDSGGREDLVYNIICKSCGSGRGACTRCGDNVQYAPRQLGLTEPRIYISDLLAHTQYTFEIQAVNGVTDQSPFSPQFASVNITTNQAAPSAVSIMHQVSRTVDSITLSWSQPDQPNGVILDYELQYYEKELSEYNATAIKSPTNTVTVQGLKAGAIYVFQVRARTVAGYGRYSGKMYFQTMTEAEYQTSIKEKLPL

The target in test [4] is T3, rmEph B3 (mouse, UniProt P54754).
T3 sequence (receptor, looked up): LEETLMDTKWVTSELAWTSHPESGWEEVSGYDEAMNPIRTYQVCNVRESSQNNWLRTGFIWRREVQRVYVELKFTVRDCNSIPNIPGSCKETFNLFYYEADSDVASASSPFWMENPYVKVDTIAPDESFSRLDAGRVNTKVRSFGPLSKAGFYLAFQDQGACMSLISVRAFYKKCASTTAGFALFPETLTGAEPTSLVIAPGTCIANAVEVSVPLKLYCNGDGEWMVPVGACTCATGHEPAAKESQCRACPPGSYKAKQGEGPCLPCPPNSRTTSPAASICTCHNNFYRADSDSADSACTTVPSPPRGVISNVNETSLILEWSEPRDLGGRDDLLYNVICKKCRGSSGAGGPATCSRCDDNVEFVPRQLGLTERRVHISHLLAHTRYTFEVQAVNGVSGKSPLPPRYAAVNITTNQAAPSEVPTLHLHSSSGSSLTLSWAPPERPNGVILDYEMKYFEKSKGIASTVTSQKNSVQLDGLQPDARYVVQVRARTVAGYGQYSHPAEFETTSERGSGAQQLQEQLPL

The target of test [5] is T4, hEphA2 (human, UniProt P29317).
T4 construct: also called human EphA2
T4 sequence (P29317 25-534 limits assumed): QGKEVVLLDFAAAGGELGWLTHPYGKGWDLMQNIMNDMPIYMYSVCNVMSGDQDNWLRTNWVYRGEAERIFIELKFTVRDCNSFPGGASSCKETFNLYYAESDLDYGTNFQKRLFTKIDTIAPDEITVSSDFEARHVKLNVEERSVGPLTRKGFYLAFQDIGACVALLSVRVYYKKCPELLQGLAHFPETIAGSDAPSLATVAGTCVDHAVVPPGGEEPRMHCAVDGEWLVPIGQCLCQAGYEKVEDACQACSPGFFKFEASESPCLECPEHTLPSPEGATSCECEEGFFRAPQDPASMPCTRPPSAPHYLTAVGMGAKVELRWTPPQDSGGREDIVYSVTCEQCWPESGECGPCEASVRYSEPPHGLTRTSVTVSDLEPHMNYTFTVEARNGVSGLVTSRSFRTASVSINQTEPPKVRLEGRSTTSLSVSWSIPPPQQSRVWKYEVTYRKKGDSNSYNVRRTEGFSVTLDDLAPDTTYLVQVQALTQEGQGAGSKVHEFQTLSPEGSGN

mEph A2, sequence (Q03145 26-535 limits assumed): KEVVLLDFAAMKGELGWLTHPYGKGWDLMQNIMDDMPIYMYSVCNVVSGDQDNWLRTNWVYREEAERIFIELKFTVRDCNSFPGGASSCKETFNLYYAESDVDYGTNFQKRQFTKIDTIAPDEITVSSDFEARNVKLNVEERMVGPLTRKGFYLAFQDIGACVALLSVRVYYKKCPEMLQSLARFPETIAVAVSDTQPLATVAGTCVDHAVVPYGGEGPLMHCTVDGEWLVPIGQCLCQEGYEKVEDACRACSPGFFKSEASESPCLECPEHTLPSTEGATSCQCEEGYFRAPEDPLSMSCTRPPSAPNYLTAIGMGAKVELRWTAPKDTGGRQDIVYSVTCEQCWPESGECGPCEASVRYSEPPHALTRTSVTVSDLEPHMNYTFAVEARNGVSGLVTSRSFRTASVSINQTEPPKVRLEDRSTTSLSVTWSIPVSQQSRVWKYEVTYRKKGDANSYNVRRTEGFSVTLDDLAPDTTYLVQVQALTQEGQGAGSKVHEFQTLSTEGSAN

B1: 1D3 (antibody, V domains shown)
VH: EVQLLESGGGLVQPGGSLRLSCAASGFTFSPYDMLWVRQAPGKGLEWVSRIGSSGGYTKYADSVKGRFTISRDNSKNTLYLQMNSLRAEDTAVYYCARARSVVVSSDAFDIWGQGTMVTVSS
VL: DIQMTQSPSSVSASVGDRVTITCRASQGISKWLAWYQQKPGKAPKLLIFGASTLQSGVPSKFSGSKSGTDFTLTISSLQPEDSATYYCQQYNDYPLTFGGGTKVEIK
In the case of B1, in test [1], the “ELISA O.D. value” was 0.316.

B2: human Anti-Eph Monoclonal Antibody GEA44 (antibody, V domains shown)
VH: QVQLLQSGAEVKKPGASVKVPCKASGYTFTSYAMSWVRQAPGQGLEWMGWINTNTGNPTYAQGFTGRFVFSLDTSVSTAYLQISSLKAEDTAVYYCARVRTTVYGDGMDVWGQGTLVTVSS
VL: EIVLTQSPATLSVSPGERATLSCRASQSVSSNLAWYQQKPGQAPRLLIYGASTRATGIPDRFSASGSGTDFTLTISRVEPEDFAVYYCQQYGSSWTFGQGTKVEIK
notes: also called mAb GEA44; parental mAb GEA44
In the case of B2, the binding result in test [2] and in test [4] was “binds” each time. Also, the “ELISA O.D. value” in test [3] is 0.535; in test [1] it was 0.792; in test [5], 0.783.
